The target in experiment [1] is T1, mouse FcγRIII (mouse, UniProt P08508 31-215).
T1 construct: Extracellular domain with C-terminal His tag; also called mFcγRIII; mFcgRIII
T1 chain: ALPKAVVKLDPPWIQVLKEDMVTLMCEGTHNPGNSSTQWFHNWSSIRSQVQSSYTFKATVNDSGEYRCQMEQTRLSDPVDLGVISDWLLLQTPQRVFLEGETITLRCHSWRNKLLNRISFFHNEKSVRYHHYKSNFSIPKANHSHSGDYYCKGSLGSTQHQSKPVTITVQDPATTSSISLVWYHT
Nature of the experiment: SPR (Biacore T200); KD of H237-MB630/MRAL-k0 / KD of variant. The text has this: (§1) The antibody H chain variable region used was the variable region H237 (SEQ ID NO: 1) of the H chain VH3-IgG1 of the anti-IL-6 receptor antibody Fv4-IgG1 described in WO2009/125825. The antibody L chain commonly used was the L chain MRAL-k0 (SEQ ID NO: 2) of the anti-IL-6 receptor antibody tocilizumab. […] These variants were expressed and purified by the method of Reference Example 1 and evaluated for their binding to mFcγRII and mFcγRIII by the method of Reference Example 2 using Biacore T200.
(§2) Each altered antibody was analyzed for its interaction with each Fcγ receptor prepared above using Biacore T100 (GE Healthcare Japan Corp.), Biacore T200 (GE Healthcare Japan Corp.), Biacore A100, or Biacore 4000. The running buffer used was HBS-EP+ (GE Healthcare Japan Corp.). The assay temperature was set to 25° C. The sensor chips used were chips prepared by immobilizing Protein L (ACTIGEN or BioVision) onto Series S Sensor Chip CM5 (GE Healthcare Japan Corp.) or Series S Sensor Chip CM4 (GE Healthcare Japan Corp.) by the amine coupling method.
(§3) In order to calculate the KD value of each altered antibody for FcγR, kinetic analysis was conducted according to the following method: first, the antibody of interest was captured onto any of these chips and allowed to interact with mFcγR diluted with a running buffer. For the obtained sensorgram, the assay results were globally fit into the 1:1 Langmuir binding model using Biacore Evaluation Software to calculate an association rate constant ka (L/mol/s) and a dissociation rate constant kd (1/s). From these values, the dissociation constant KD (mol/L) was calculated.
Background: Surface plasmon resonance follows binding to a sensor surface in real time, without labels.

Experiment [2] deals with T2, mouse FcγRII (mouse, UniProt P08101 30-210).
T2 construct: Extracellular domain with C-terminal His tag; also called mFcγRII; mFcgRII
T2 sequence: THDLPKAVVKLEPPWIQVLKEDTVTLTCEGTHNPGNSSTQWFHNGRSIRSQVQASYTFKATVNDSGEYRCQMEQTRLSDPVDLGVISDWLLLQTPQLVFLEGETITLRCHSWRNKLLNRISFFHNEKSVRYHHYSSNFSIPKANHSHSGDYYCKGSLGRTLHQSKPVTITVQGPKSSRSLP
Described as above.
Description: as §1, §2, §3

Experiment [3] concerns the target T1, mouse FcγRIII. In words: SPR (Biacore T200); KD of H237-mIgG1/MRAL-k0 / KD of variant.
Description: as §1, §2

Experiment [4] has as its target T2, mouse FcγRII. The description is as above.
Description: as §1, §2

B1: MB767 (antibody, mouse IgG1, kappa)
heavy: QVQLQESGPGLVKPSETLSLTCAVSGHSISHDHAWSWVRQPPGEGLEWIGFISYSGITNYNPSLQGRVTISRDNSKNTLYLQMNSLRAEDTAVYYCARSLARTTAMDYWGEGTLVTVSSAKTTPPSVYPLAPGSAAQTNSMVTLGCLVKGYFPEPVTVTWNSGSLSSGVHTFPAVLQSDLYTLSSSVTVPSSTWPSETVTCNVAHPASSTKVDKKIVPRDCGCKPCICEPNEVELVFIFPPKPKDVLTITLTPKVTCVVVDISKDDPEVQFSWFVDDVEVHTAQTQPREEQFNSTFRSVSELPIMHQDWLNGKEFKCRVNSAAFPGPIEKTISKTKGRPKAPQVYTIPPPKEQMAKDKVSLTCMITDFFPEDITVEWQWNGQPAENYKNTQPIMDTDGSYFVYSKLNVQKSNWEAGNTFTCSVLHEGLHNHHTEKSLSHSPGK
light: not shown
notes: CH name; VH H237 + CH, L chain MRAL-k0; copies: 2 + 2
Turning to B1, in experiment [1], the “Relative mFcγRIII-binding activity (MB630 = 1)” value worked out at 0.19 fold. Besides, the “Relative mFcγRII-binding activity (MB630 = 1)” value in experiment [2] was 0.16 fold. Moreover, the “relative mFcγRIII-binding activity (mIgG1 = 1)” value in experiment [3] was determined as 0.03 fold. Further, the “relative mFcγRII-binding activity (mIgG1 = 1)” value in experiment [4] worked out at 1.8 fold.

B2: MB773 (antibody, mouse IgG1, kappa)
heavy: QVQLQESGPGLVKPSETLSLTCAVSGHSISHDHAWSWVRQPPGEGLEWIGFISYSGITNYNPSLQGRVTISRDNSKNTLYLQMNSLRAEDTAVYYCARSLARTTAMDYWGEGTLVTVSSAKTTPPSVYPLAPGSAAQTNSMVTLGCLVKGYFPEPVTVTWNSGSLSSGVHTFPAVLQSDLYTLSSSVTVPSSTWPSETVTCNVAHPASSTKVDKKIVPRDCGCKPCICEPNEVELVFIFPPKPKDVLTITLTPKVTCVVVDISKDDPEVQFSWFVDDVEVHTAQTQPREEQFNSTFRSVSELPIMHQDWLNGKEFKCRVNSAAFPAPIYKTISKTKGRPKAPQVYTIPPPKEQMAKDKVSLTCMITDFFPEDITVEWQWNGQPAENYKNTQPIMDTDGSYFVYSKLNVQKSNWEAGNTFTCSVLHEGLHNHHTEKSLSHSPGK
light: not shown
notes: as for B1
With B2, in experiment [1], the “Relative mFcγRIII-binding activity (MB630 = 1)” value came out at 1.25 fold. Further, the “Relative mFcγRII-binding activity (MB630 = 1)” value in experiment [2] was determined as 1.17 fold. Further, the “relative mFcγRIII-binding activity (mIgG1 = 1)” value in experiment [3] came to 0.22 fold. Moreover, the “relative mFcγRII-binding activity (mIgG1 = 1)” value in experiment [4] stood at 12.7 fold.

B3: MB772 (antibody, mouse IgG1, kappa)
heavy: QVQLQESGPGLVKPSETLSLTCAVSGHSISHDHAWSWVRQPPGEGLEWIGFISYSGITNYNPSLQGRVTISRDNSKNTLYLQMNSLRAEDTAVYYCARSLARTTAMDYWGEGTLVTVSSAKTTPPSVYPLAPGSAAQTNSMVTLGCLVKGYFPEPVTVTWNSGSLSSGVHTFPAVLQSDLYTLSSSVTVPSSTWPSETVTCNVAHPASSTKVDKKIVPRDCGCKPCICEPNEVELVFIFPPKPKDVLTITLTPKVTCVVVDISKDDPEVQFSWFVDDVEVHTAQTQPREEQFNSTFRSVSELPIMHQDWLNGKEFKCRVNSAAFPAPINKTISKTKGRPKAPQVYTIPPPKEQMAKDKVSLTCMITDFFPEDITVEWQWNGQPAENYKNTQPIMDTDGSYFVYSKLNVQKSNWEAGNTFTCSVLHEGLHNHHTEKSLSHSPGK
light: not shown
notes: as for B1
As to B3, the “Relative mFcγRIII-binding activity (MB630 = 1)” value in experiment [1] is 0.42 fold. The “Relative mFcγRII-binding activity (MB630 = 1)” value in experiment [2] came to 0.32 fold. In addition, in experiment [3], the “relative mFcγRIII-binding activity (mIgG1 = 1)” value was 0.07 fold. Also, the “relative mFcγRII-binding activity (mIgG1 = 1)” value in experiment [4] amounted to 3.5 fold.

B4: MB768 (antibody, mouse IgG1, kappa)
heavy: QVQLQESGPGLVKPSETLSLTCAVSGHSISHDHAWSWVRQPPGEGLEWIGFISYSGITNYNPSLQGRVTISRDNSKNTLYLQMNSLRAEDTAVYYCARSLARTTAMDYWGEGTLVTVSSAKTTPPSVYPLAPGSAAQTNSMVTLGCLVKGYFPEPVTVTWNSGSLSSGVHTFPAVLQSDLYTLSSSVTVPSSTWPSETVTCNVAHPASSTKVDKKIVPRDCGCKPCICEPNEVELVFIFPPKPKDVLTITLTPKVTCVVVDISKDDPEVQFSWFVDDVEVHTAQTQPREEQFNSTFRSVSELPIMHQDWLNGKEFKCRVNSAAFPQPIEKTISKTKGRPKAPQVYTIPPPKEQMAKDKVSLTCMITDFFPEDITVEWQWNGQPAENYKNTQPIMDTDGSYFVYSKLNVQKSNWEAGNTFTCSVLHEGLHNHHTEKSLSHSPGK
light: not shown
notes: as for B1
Turning to B4, in experiment [1], the “Relative mFcγRIII-binding activity (MB630 = 1)” value stood at 0.81 fold. The “Relative mFcγRII-binding activity (MB630 = 1)” value in experiment [2] stood at 0.5 fold. Moreover, in experiment [3], the “relative mFcγRIII-binding activity (mIgG1 = 1)” value came to 0.14 fold. The “relative mFcγRII-binding activity (mIgG1 = 1)” value in experiment [4] was found to be 5.4 fold.

B5: MB771 (antibody, mouse IgG1, kappa)
heavy: QVQLQESGPGLVKPSETLSLTCAVSGHSISHDHAWSWVRQPPGEGLEWIGFISYSGITNYNPSLQGRVTISRDNSKNTLYLQMNSLRAEDTAVYYCARSLARTTAMDYWGEGTLVTVSSAKTTPPSVYPLAPGSAAQTNSMVTLGCLVKGYFPEPVTVTWNSGSLSSGVHTFPAVLQSDLYTLSSSVTVPSSTWPSETVTCNVAHPASSTKVDKKIVPRDCGCKPCICEPNEVELVFIFPPKPKDVLTITLTPKVTCVVVDISKDDPEVQFSWFVDDVEVHTAQTQPREEQFNSTFRSVSELPIMHQDWLNGKEFKCRVNSAAFPAYIEKTISKTKGRPKAPQVYTIPPPKEQMAKDKVSLTCMITDFFPEDITVEWQWNGQPAENYKNTQPIMDTDGSYFVYSKLNVQKSNWEAGNTFTCSVLHEGLHNHHTEKSLSHSPGK
light: not shown
notes: as for B1
Regarding B5, the “Relative mFcγRIII-binding activity (MB630 = 1)” value in experiment [1] turned out to be 1.53 fold. Moreover, the “Relative mFcγRII-binding activity (MB630 = 1)” value in experiment [2] was found to be 1.27 fold. Also, the “relative mFcγRIII-binding activity (mIgG1 = 1)” value in experiment [3] stood at 0.26 fold. Moreover, the “relative mFcγRII-binding activity (mIgG1 = 1)” value in experiment [4] came to 13.8 fold.

B6: MB770 (antibody, mouse IgG1, kappa)
heavy: QVQLQESGPGLVKPSETLSLTCAVSGHSISHDHAWSWVRQPPGEGLEWIGFISYSGITNYNPSLQGRVTISRDNSKNTLYLQMNSLRAEDTAVYYCARSLARTTAMDYWGEGTLVTVSSAKTTPPSVYPLAPGSAAQTNSMVTLGCLVKGYFPEPVTVTWNSGSLSSGVHTFPAVLQSDLYTLSSSVTVPSSTWPSETVTCNVAHPASSTKVDKKIVPRDCGCKPCICEPNEVELVFIFPPKPKDVLTITLTPKVTCVVVDISKDDPEVQFSWFVDDVEVHTAQTQPREEQFNSTFRSVSELPIMHQDWLNGKEFKCRVNSAAFPAFIEKTISKTKGRPKAPQVYTIPPPKEQMAKDKVSLTCMITDFFPEDITVEWQWNGQPAENYKNTQPIMDTDGSYFVYSKLNVQKSNWEAGNTFTCSVLHEGLHNHHTEKSLSHSPGK
light: not shown
notes: as for B1
Turning to B6, the “Relative mFcγRIII-binding activity (MB630 = 1)” value in experiment [1] was determined as 1.4 fold. In addition, the “Relative mFcγRII-binding activity (MB630 = 1)” value in experiment [2] turned out to be 1.23 fold. Moreover, in experiment [3], the “relative mFcγRIII-binding activity (mIgG1 = 1)” value was found to be 0.24 fold. In addition, the “relative mFcγRII-binding activity (mIgG1 = 1)” value in experiment [4] turned out to be 13.3 fold.

B7: MB769 (antibody, mouse IgG1, kappa)
heavy: QVQLQESGPGLVKPSETLSLTCAVSGHSISHDHAWSWVRQPPGEGLEWIGFISYSGITNYNPSLQGRVTISRDNSKNTLYLQMNSLRAEDTAVYYCARSLARTTAMDYWGEGTLVTVSSAKTTPPSVYPLAPGSAAQTNSMVTLGCLVKGYFPEPVTVTWNSGSLSSGVHTFPAVLQSDLYTLSSSVTVPSSTWPSETVTCNVAHPASSTKVDKKIVPRDCGCKPCICEPNEVELVFIFPPKPKDVLTITLTPKVTCVVVDISKDDPEVQFSWFVDDVEVHTAQTQPREEQFNSTFRSVSELPIMHQDWLNGKEFKCRVNSAAFPADIEKTISKTKGRPKAPQVYTIPPPKEQMAKDKVSLTCMITDFFPEDITVEWQWNGQPAENYKNTQPIMDTDGSYFVYSKLNVQKSNWEAGNTFTCSVLHEGLHNHHTEKSLSHSPGK
light: not shown
notes: as for B1
Take B7: the “Relative mFcγRIII-binding activity (MB630 = 1)” value in experiment [1] was determined as 0.38 fold. In addition, the “Relative mFcγRII-binding activity (MB630 = 1)” value in experiment [2] is 0.31 fold. Besides, the “relative mFcγRIII-binding activity (mIgG1 = 1)” value in experiment [3] came out at 0.06 fold. Further, in experiment [4], the “relative mFcγRII-binding activity (mIgG1 = 1)” value amounted to 3.3 fold.

(Values after patent publication US20150203577A1 (Chugai, published 2015).)
